Data taken from patent WO2009041734A1 (dated 2009).

T1: human thrombopoietin receptor (human c-Mpl) (human, UniProt P40238 26-635)
T1 sequence (looked up): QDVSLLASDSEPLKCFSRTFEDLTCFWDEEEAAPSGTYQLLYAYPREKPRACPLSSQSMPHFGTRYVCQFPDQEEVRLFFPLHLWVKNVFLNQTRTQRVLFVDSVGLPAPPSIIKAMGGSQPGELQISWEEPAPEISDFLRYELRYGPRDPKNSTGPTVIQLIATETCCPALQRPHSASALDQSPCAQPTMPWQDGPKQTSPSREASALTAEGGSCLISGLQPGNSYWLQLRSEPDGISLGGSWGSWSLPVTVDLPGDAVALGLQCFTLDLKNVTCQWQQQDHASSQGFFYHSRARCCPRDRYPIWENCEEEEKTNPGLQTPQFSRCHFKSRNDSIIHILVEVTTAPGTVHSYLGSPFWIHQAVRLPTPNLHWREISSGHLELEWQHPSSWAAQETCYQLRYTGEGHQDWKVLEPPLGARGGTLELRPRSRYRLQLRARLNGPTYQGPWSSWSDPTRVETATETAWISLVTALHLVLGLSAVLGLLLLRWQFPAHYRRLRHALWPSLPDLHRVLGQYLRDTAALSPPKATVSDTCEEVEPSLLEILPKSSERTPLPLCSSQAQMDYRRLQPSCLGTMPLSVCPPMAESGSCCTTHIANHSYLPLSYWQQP


Experiments:
[1] = molecular target: T1, human thrombopoietin receptor (human …); test: cell-based or functional assay
[2] = molecular target: T1, human thrombopoietin receptor (human …); test: flow cytometry on FM3A-hMpl cells, antibody at 1, 0.1, 0.01 ug/mL

Binder	UT7/TPO (Max), maximum activity relative to PEG-rHuMGDF [1]	binding activity relative to 7-10G4344uhm [2]	agonist activity relative to 7-10G4344uhm, UT-7/TPO cell proliferation assay [1]
anti-human c-Mpl agonist antibody 7-10 (IgG1) (antibody, V domains shown) VH: EVQLVESGGGLVQPGRSLRLSCAASGFTFDDYAMHWVRQAPGKGLEWVSGISWNSGSIGYADSVKGRFTISRDNAKNSLYLQMNSLRAEDTALYYCAKNLWFGEFRYWYFDLWGRGTLVTVSS VL: AIQLTQSPSSLSASVGDRVTITCRASQGISSALAWYQQKPGKAPKLLIYDASSLESGVPSRFSGSGSGTDFTLTISSLQPEDFATYYCQQFNSYPLTFGGGTKVEIK	> 90%		
anti-human c-Mpl agonist antibody 4-49 (IgG1) (antibody, V domains shown) VH: EEQLVESGGGLVQPGRSLRLSCTASGFTFDDYAMYWVRQVPGKGLEWVSGISWNSGSIGYADSVKGRFTVSRDNAKNSLYLQMNSLRAEDTALYYCAKALWFGEFPHYYGMDVWGQGTTVTVSS VL: AIQLTQSPSSLSASVGDRVTITCRASQGISSTLAWYQQKPGKAPKLLIYDASSLESGVPSRFSGSGSGTDFTLTISSLQPEDFATYYCQQFNSYPYTFGQGTKLEIKR	> 80%		

The next lines start with the values.

UT7/TPO (Max), maximum activity relative to PEG-rHuMGDF [1]	binding activity relative to 7-10G4344uhm [2]	agonist activity relative to 7-10G4344uhm, UT-7/TPO cell proliferation assay [1]	Binder
	~0.1 fold of 7-10G4344uhm	~0.1 fold of 7-10G4344uhm	7-10G4344uhm light chain mutant 7-10VL_Y94F (antibody, V domains shown) VH: EVQLVESGGGLVQPGRSLRLSCAASGFTFDDYAMHWVRQAPGKGLEWVSGISWNSGSIGYADSVKGRFTISRDNAKNSLYLQMNSLRAEDTALYYCAKNLWFGEFRYWYFDLWGRGTLVTVSS VL: AIQLTQSPSSLSASVGDRVTITCRASQGISSALAWYQQKPGKAPKLLIYDASSLESGVPSRFSGSGSGTDFTLTISSLQPEDFATYYCQQFNSFPLTFGGGTKVEIK
> 50%			anti-human c-Mpl agonist antibody 6-5-2 (IgG1) (antibody, V domains shown) VH: EVQLVECGGGLVQPGRSLRLSCAASGFTFDDYAMHWVRQAPGKGLEWVSGISWNSGSIGYADSVKGRFTISRDNAKNSLYLQMNSLRAEDTALYYCAKPIWFGEWGNYYGMDVWGQGTTVTVSS VL: not shown
> 80%			anti-human c-Mpl agonist antibody 6-4-50 (IgG1) (antibody, V domains shown) VH: EVQLVESGGGLVQPGRSLRLSCATSGFTFDNYAMYWVRQAPGKGLEWVSGISWNSGDIGYADSVKGRFTISRDNAKNSLYLQMNSLRAEDTALYYCARDAGFGEFHYGLDVWGQGTTVTVSS VL: AIQLTQSPSSLSASVGDRVTITCRASQGISSALAWYQQKPGKVPKLLIYDASSLESGVPSRFSGSGSGTDFTLTISSLQPEDFATYYCQQFNSYPWTFGQGTKVEIKR
